Data taken from publication PMC8533776.

Biological target: enhanced green fluorescent protein (EGFP) [GFP: P42212]
Assay: ELISA; EGFP coated at 100 ng/well in PBS overnight at 4 °C, blocked with 3% BSA; threefold serial dilutions of the binders, 37 °C for 1.5 h; detection by HRP-conjugated anti-Flag antibody, ABTS, OD405

EC50: 630 pM
Substance: αEGFP TRIMbody (RBCC-LaG16-LaG2)
